# Experimental data from article PMC4299599, “Quantification of cytosolic interactions identifies Ede1 oligomers as key organizers of endocytosis” (Molecular Systems Biology, 2014).
# T1: Apl3 (S. cerevisiae, UniProt P38065 1-1025)
# T1 construct: Apl3, subunit of the AP2 complex, S. cerevisiae; also called Apl3-3myeGFP; Apl3-3mCherry; source: chromosomally tagged at the endogenous locus, in the cytoplasm of living S. cerevisiae cells
# T1 sequence (looked up): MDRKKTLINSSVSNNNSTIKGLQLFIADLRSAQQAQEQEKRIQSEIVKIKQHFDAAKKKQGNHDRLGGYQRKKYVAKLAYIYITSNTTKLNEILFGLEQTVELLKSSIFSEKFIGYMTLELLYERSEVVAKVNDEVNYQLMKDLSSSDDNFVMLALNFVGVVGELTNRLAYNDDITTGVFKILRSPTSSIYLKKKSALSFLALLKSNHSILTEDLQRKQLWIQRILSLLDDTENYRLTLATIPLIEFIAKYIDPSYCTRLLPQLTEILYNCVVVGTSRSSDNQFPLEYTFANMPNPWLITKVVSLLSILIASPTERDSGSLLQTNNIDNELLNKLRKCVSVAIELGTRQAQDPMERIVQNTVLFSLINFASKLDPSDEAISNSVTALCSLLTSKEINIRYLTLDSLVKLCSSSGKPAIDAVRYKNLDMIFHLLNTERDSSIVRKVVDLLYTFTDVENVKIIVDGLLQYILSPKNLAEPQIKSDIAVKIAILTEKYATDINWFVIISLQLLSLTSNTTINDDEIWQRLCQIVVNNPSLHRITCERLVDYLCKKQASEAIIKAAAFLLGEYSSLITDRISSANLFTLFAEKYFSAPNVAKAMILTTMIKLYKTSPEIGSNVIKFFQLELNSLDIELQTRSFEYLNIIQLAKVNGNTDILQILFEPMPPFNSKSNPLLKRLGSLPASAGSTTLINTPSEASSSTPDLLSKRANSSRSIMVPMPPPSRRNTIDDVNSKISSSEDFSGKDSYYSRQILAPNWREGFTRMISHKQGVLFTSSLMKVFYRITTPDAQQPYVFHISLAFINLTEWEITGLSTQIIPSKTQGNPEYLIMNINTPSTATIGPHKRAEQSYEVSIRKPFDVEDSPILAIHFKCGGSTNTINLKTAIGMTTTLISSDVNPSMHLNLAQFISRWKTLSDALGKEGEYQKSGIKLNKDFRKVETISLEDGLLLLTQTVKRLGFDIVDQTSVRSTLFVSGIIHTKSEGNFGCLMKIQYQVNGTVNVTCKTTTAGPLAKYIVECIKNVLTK
# T2: Ede1 (Ede1-3myeGFP / Ede1-3mCherry) (S. cerevisiae, UniProt P34216 1-1381)
# T2 construct: Ede1, S. cerevisiae, homolog of mammalian Eps15; expressed from its own locus; also called wild-type Ede1; full-length Ede1; source: S. cerevisiae, chromosomally tagged at the endogenous locus, in living cells; not shown: 3myeGFP, C-terminal, kept; 3mCherry, C-terminal, kept
# T2 sequence (looked up): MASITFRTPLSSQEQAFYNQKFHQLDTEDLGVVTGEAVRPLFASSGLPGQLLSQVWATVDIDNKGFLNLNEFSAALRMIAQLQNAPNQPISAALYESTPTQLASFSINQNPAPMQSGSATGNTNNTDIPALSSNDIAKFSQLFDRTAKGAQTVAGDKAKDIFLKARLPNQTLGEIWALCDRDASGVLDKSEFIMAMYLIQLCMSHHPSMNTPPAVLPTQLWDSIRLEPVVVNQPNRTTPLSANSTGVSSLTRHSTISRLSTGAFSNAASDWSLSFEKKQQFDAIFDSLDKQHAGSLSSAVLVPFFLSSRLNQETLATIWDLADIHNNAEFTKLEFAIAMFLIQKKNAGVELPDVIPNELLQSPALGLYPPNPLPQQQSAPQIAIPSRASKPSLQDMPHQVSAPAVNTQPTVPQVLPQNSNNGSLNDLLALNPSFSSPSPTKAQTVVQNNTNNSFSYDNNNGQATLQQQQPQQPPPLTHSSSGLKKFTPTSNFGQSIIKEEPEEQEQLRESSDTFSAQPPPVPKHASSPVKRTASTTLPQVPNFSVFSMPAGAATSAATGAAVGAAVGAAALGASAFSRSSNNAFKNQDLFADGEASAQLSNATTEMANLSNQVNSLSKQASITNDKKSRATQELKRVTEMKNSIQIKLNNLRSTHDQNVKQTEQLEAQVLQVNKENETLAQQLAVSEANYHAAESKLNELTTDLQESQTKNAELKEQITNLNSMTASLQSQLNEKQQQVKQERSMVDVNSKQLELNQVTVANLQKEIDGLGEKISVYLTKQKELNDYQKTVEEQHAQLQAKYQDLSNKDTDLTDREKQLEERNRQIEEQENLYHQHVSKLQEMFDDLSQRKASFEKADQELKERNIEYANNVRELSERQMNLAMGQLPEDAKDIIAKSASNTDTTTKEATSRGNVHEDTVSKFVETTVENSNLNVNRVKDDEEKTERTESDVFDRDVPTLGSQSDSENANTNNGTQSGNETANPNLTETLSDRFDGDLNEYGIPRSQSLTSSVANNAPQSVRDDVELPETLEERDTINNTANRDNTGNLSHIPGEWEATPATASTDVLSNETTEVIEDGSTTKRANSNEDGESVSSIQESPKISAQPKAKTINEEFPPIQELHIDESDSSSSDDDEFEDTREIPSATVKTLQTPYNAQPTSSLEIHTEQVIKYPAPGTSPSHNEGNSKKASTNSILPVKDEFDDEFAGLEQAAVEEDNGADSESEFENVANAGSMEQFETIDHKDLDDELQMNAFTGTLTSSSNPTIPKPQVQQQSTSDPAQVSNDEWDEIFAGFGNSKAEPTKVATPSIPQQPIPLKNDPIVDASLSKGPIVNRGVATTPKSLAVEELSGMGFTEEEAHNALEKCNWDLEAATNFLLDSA
# B1: Apl1 (natural protein, S. cerevisiae, UniProt P27351 1-700, looked up)
# chain: MSDQKVFARYKANEIVTDLQHFGVKKFKSNITRRKNALRKIIANLVLGNYGEMSVLFSELLKFWQIEDDLEVKRICHEYIRVIGALKPQQAREALPFIMDDFKSRDEKLQIMALRTLVLVPVKELSDQAFDCIISLVNHKSPPEQVTRTAIYALLDLDEIDHERVLGLSSILHDIVKAQSSSPEVIVAALHTLYSIHEKNANMEPFRIPLELAFDMLELLPELNEWNKATVLEVLTTSVVPQHYLDTHEMIELALPYLQQVNTYVVLNSLKFIMYLLNYVDVIKETLAEKLSNSVIALLDKPPELQFLVLRNVILLLLSRESSLLRLDISYFFIEYNDPIYIKDTKLECLYLLANKETLPRILEELEQYATDIDIQMSRKSVRAIGNLAVKLDEDSVHDCVAVLLDLLEFGVDYVVQEIISVFRNILRKYPNNFKANVTELVKHTEVVQEPESKNAMIWIITQYSDVIPNYLELFRVFSSNMFSETLEVQFSILNSAIKFFIRSPTKETEELCMDLLKGCIDHENNPDLRDKTLMYWRLLSLTKTSRISNAITFESLKSVLDGELPLIEMNTKLDPTVLEELELNIGTIVSIYLKPVSHIFRLNKTKLLPQSPILNPNKDLLPVVGNSFPPTGANRDRQNSESQSSTKSRKTAMMDDYDKPAEKINQLKGKRKSSSNNPSKLSRKPSTLLRKLSMKRPFS
# notes: Apl1, subunit of the AP2 complex, S. cerevisiae; also called Apl1-1myeGFP; Apl1-3mCherry; source: chromosomally tagged at the endogenous locus, in the cytoplasm of living S. cerevisiae cells
# B2: Sla2 (natural protein, S. cerevisiae, UniProt P33338 1-968, looked up)
# chain: MSRIDSDLQKALKKACSVEETAPKRKHVRACIVYTWDHQSSKAVFTTLKTLPLANDEVQLFKMLIVLHKIIQEGHPSALAEAIRDRDWIRSLGRVHSGGSSYSKLIREYVRYLVLKLDFHAHHRGFNNGTFEYEEYVSLVSVSDPDEGYETILDLMSLQDSLDEFSQIIFASIQSERRNTECKISALIPLIAESYGIYKFITSMLRAMHRQLNDAEGDAALQPLKERYELQHARLFEFYADCSSVKYLTTLVTIPKLPVDAPDVFLINDVDESKEIKFKKREPSVTPARTPARTPTPTPPVVAEPAISPRPVSQRTTSTPTGYLQTMPTGATTGMMIPTATGAANAIFPQATAQMQPDFWANQQAQFANEQNRLEQERVQQLQQQQAQQELFQQQLQKAQQDMMNMQLQQQNQHQNDLIALTNQYEKDQALLQQYDQRVQQLESEITTMDSTASKQLANKDEQLTALQDQLDVWERKYESLAKLYSQLRQEHLNLLPRFKKLQLKVNSAQESIQKKEQLEHKLKQKDLQMAELVKDRDRARLELERSINNAEADSAAATAAAETMTQDKMNPILDAILESGINTIQESVYNLDSPLSWSGPLTPPTFLLSLLESTSENATEFATSFNNLIVDGLAHGDQTEVIHCVSDFSTSMATLVTNSKAYAVTTLPQEQSDQILTLVKRCAREAQYFFEDLMSENLNQVGDEEKTDIVINANVDMQEKLQELSLAIEPLLNIQSVKSNKETNPHSELVATADKIVKSSEHLRVDVPKPLLSLALMIIDAVVALVKAAIQCQNEIATTTSIPLNQFYLKNSRWTEGLISAAKAVAGATNVLITTASKLITSEDNENTSPEQFIVASKEVAASTIQLVAASRVKTSIHSKAQDKLEHCSKDVTDACRSLGNHVMGMIEDDHSTSQQQQPLDFTSEHTLKTAEMEQQVEILKLEQSLSNARKRLGEIRRHAYYNQDDD
# notes: Sla2, S. cerevisiae; Each copy carries one of the two tags; also called Sla2-3myeGFP; source: S. cerevisiae, chromosomally tagged at the endogenous locus, in living cells; not shown: 3myeGFP, C-terminal, kept; 3mCherry, C-terminal, kept
# B3: Syp1 (natural protein, S. cerevisiae, UniProt P25623 1-870, looked up)
# chain: MTEQRTKYADSILTTKSPYEATETIRIRLSQVKLLNKDFYLLFKELANLKRNYAQQLRKIIAENEDITKILNAQMIESNVLTPQEMSAFRFNSLGELRNVWDTVIEELKSDLKSSTEYYNTLDQQVVRELKESVENNTSWRESKDLHSKLSKNAASIEHYSKNNENSSHLEEARRQWDQQSPYLFELFETIDYNRLDTLKNCMLRFQTSFSDYLLNTTKECETVMTKFLAFEPQSEIDRFAKDASQYNFQLSSSSKEVVPNNASPASATGARPVSVSNGAANTEREKKSPQKDKRKSAFGNIGHRLASASSSLTHNDLMNNEFSDSTNNSSLKSKKSSHTLRSKVGSIFGRNKTKNKRQQQSSSNSHIQASITETPNNSSTRVSSTATSSIYQKQRRPTYSSSKSNNWTPGEASDTPPLPPHATPKNVDAPVTADTPPAQTFTPSEVPPSTPQQSSPPTAKEPDSSNLPKTVPISISQPPLQPQSKTKPLPVEPASPSISLPTATVDNQPSGQVDSRPLHIRAPALPPSRKQNFIHNRDSQLYDSLPNHGSGATPTSSSLSSIPQERPVSTLSSQITGELRELNPQATGSSTSLVGQSLFQHSSLDTSQFGLNASIAEVLNASFKDGMLQNSQLIGEIALNYLPNSVMNSPLPIGINLRINNGAKFEKVILNQAFIERVAPEEFKVNPSFIDSRTLGAIKYSIKEPIAPIVIHPVWRFESHQASVVLTVKMSPSLPDEISQIVIEDLVVFVNIDGANATSALSKPQGSFSKEKKRITWRFKEPVVLTRNGEGQRLIARFITDGLAHESAKGVITKFTISETDNVALPHSGAGSGITLTCQELDENNPFGGEWLDVNTKRTLTTGNYHGLA
# notes: Syp1, S. cerevisiae endocytic adaptor; Each copy carries one of the two tags; also called Syp1-3myeGFP; source: S. cerevisiae, chromosomally tagged at the endogenous locus, in living cells; not shown: 3myeGFP, C-terminal, kept; 3mCherry, C-terminal, kept
# Columns and labels:
# [1] = target: Las17 polyproline motif (Saccharomyces cerevisiae) (UniProt Q12446); conditions: cited from earlier work
# Apl3 = target: T1, Apl3; assay: fluorescence cross-correlation spectroscopy (FCCS); in the cytoplasm of living yeast cells; first-named protein green (3myeGFP or 1myeGFP; eGFP for Don1), second red (3mCherry); self-interaction in diploid strains with one allele of each colour; apparent or effective KD (Kdeff) from single-cell measurements; only Kdeff values < 1000 nM are shown; values for self-interactions are upper limits; conditions: partners not purified
# [2] = target: the molecule itself; assay: FCS molecular brightness (counts per particle per second); living yeast cells, cytoplasm; brightness of GFP-tagged particles compared with 3myeGFP and Ent2-3myeGFP (monomers) or with wild-type Ede1; average of all particles
# [3] = target: T2, Ede1 (Ede1-3myeGFP / Ede1-3mCherry); assay: fluorescence cross-correlation spectroscopy (FCCS); living yeast cells, observation volume in the cytoplasm; one protein tagged with (3)myeGFP/eGFP and the other with 3mCherry in the same strain; apparent (effective) KD; interactions up to ~1 μM detectable; conditions: partners not purified
molecule,measurement,setting,value
Sla1 SH3 domains (from UniProt P32790),Kd,[1],56 nM
B1,Kd,Apl3,37 nM
B2,molecular brightness per particle relative to 3myeGFP,[2],2 fold
same,Kd,[3],590 nM
B3,Kd,[3],227 nM
